Measured values taken from the supplement of paper PMC9233669.
Fewer inactive variants are shown than the library holds.

Tests used:
biotinyl-Leu-oxazolone = assay: self-aminoacylation, catalytic enhancement (BLO) (fold over background); higher = more active; k-Seq, kA / k0A0; sequences stand for … in GGGAAUGGAUCCACAUCUACGAAUUC…UUCACUGCAGACUUGACGAAGCUG
In short: (§1)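 Working in 50 μL HEPES/NaCl/KCl/MgCl2/CaCl2 buffer with 5% acetonitrile at pH 6.9–7.0, mutagenized RNA pools (0.43 μM; 21-nt variable region) were reacted with 2–1250 μM of each biotinyl-aminoacyl-oxazolone for 90 minutes at room temperature. Streptavidin capture followed, with quantification by triplicate qPCR and Illumina sequencing. Catalytic enhancement is reported as median kA over the uncatalyzed rate, the low-activity peak of a bimodal Gaussian fit to the data.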

biotinyl-Val-oxazolone = assay: self-aminoacylation, catalytic enhancement (BVO) (fold over background); higher = more active; k-Seq, kA / k0A0; sequences stand for … in GGGAAUGGAUCCACAUCUACGAAUUC…UUCACUGCAGACUUGACGAAGCUG
In short: as §1

biotinyl-Met-oxazolone = assay: self-aminoacylation, catalytic enhancement (BMO) (fold over background); higher = more active; k-Seq, kA / k0A0; sequences stand for … in GGGAAUGGAUCCACAUCUACGAAUUC…UUCACUGCAGACUUGACGAAGCUG
In short: as §1

biotinyl-Ile-oxazolone = assay: self-aminoacylation, catalytic enhancement (BIO) (fold over background); higher = more active; k-Seq, kA / k0A0; sequences stand for … in GGGAAUGGAUCCACAUCUACGAAUUC…UUCACUGCAGACUUGACGAAGCUG
In short: as §1

biotinyl-Phe-oxazolone = assay: self-aminoacylation, catalytic enhancement (BFO) (fold over background); higher = more active; k-Seq, kA / k0A0; sequences stand for … in GGGAAUGGAUCCACAUCUACGAAUUC…UUCACUGCAGACUUGACGAAGCUG
In short: as §1

biotinyl-Trp-oxazolone = assay: self-aminoacylation, catalytic enhancement (BWO) (fold over background); higher = more active; k-Seq, kA / k0A0; sequences stand for … in GGGAAUGGAUCCACAUCUACGAAUUC…UUCACUGCAGACUUGACGAAGCUG
In short: as §1

Sequence | self-aminoacylation (biotinyl-Leu-oxazolone) | self-aminoacylation (biotinyl-Val-oxazolone) | self-aminoacylation (biotinyl-Met-oxazolone) | self-aminoacylation (biotinyl-Ile-oxazolone) | self-aminoacylation (biotinyl-Phe-oxazolone) | self-aminoacylation (biotinyl-Trp-oxazolone)
AAGUUUGCUAAUCGUCGUAAG [Fam3.1 aminoacylation ribozyme variant] | 0.75 | 0.947 | 0.85 | 0.808 | 6.16 | 2.06
GAGUUUGCUCAUAGUCGCAAG [Fam3.1 aminoacylation ribozyme variant] | 2.12 | 1.59 | 1.73 | 1.72 | 7.43 | 2.62
CUACUUCAAACAUUCCGUCUG [Fam1A.1 aminoacylation ribozyme variant] | 1.19 | 1.2 | 0.79 | 1.15 | 0.631 | 1.22
AAGUUUGAUAAUAGCCGCAAG [Fam3.1 aminoacylation ribozyme variant] | 1.05 | 1.14 | 1.37 | 1.29 | 1.32 | 1.19
AUUACCAUGGUGAUCGAGUGA [Fam2.1 aminoacylation ribozyme variant] | 4.04 | 2.4 | 3.59 | 2.33 | 14.7 | 4.4
AUGCACCUAGGUCACCGGGUG [Fam2.2 aminoacylation ribozyme variant] | 3.59 | 3.68 | 3.97 | 3.86 | 25 | 4.46
AUUCACUUAGGUCAUUGGGUG [Fam2.2 aminoacylation ribozyme variant] | 4.48 | 2.39 | 3.64 | 2.3 | 25.2 | 3.76
AUUACACUUGUCAUCGAGUGA [Fam2.1 aminoacylation ribozyme variant] | 4.35 | 2.59 | 4.21 | 2.51 | 11.4 | 5.31
AUUCUCCUAGGUCAUCAGGUG [Fam2.2 aminoacylation ribozyme variant] | 2.71 | 2.3 | 2.62 | 2.12 | 6.58 | 2.38
AUUCUCCAAGGUCAUCGGGUG [Fam2.2 aminoacylation ribozyme variant] | 15.6 | 7.99 | 11.8 | 6.8 | 102 | 10.7
CUACUUCAAAUAAGCGGUCUG [Fam1A.1 aminoacylation ribozyme variant] | 0.824 | 0.799 | 0.797 | 0.958 | 0.945 | 0.575
AUUCACAUAGGUCAUCGGGCG [Fam2.2 aminoacylation ribozyme variant] | 3.11 | 2.33 | 2.5 | 2.05 | 6.68 | 2.3
AUUCACGUAGGUCAUCGGGUU [Fam2.2 aminoacylation ribozyme variant] | 2.54 | 2.74 | 2.4 | 2.03 | 14.9 | 2.93
CUACUCCAAACAAUCGGUCUU [Fam1A.1 aminoacylation ribozyme variant] | 0.868 | 0.958 | 0.803 | 0.864 | 1.74 | 1.2
AUUAACCAAGGUCAUCGGGUG [Fam2.2 aminoacylation ribozyme variant] | 9.4 | 4.19 | 7.25 | 3.81 | 43.2 | 6.8
AAGUUUGCUAAUAUUAGCAAG [Fam3.1 aminoacylation ribozyme variant] | 1.08 | 1.24 | 1.32 | 1.28 | 1.2 | 1.3
AUUCUCCUAGGUCCUCGGGUG [Fam2.2 aminoacylation ribozyme variant] | 10.5 | 4.54 | 6.44 | 4.72 | 54.1 | 7.62
UUUACCCUGGUCAUCGGGUGA [Fam2.1 aminoacylation ribozyme variant] | 37.2 | 16.7 | 37.3 | 15.2 | 221 | 40.3
CAACUUCAAGCAAUCGGUCUG [Fam1A.1 aminoacylation ribozyme variant] | 2.26 | 1.39 | 1.59 | 1.54 | 27.2 | 20.5
CCAUACUUCAAGCAAUCGGAC [Fam1B.1 aminoacylation ribozyme variant] | 0.856 | 1.06 | 1.17 | 1.01 | 1.21 | 0.768
AUUACCCUGUCCAUCGAGUGA [Fam2.1 aminoacylation ribozyme variant] | 11.3 | 5.38 | 10.6 | 5.63 | 70.4 | 14.8
CCAUACUUCAAGCUAUCGGUC [Fam1B.1 aminoacylation ribozyme variant] | 0.952 | 1.09 | 0.801 | 1.05 | 0.984 | 0.697
CGACACUUCGAGCAAUCGGUC [Fam1B.1 aminoacylation ribozyme variant] | 1.18 | 1.4 | 1.28 | 1.24 | 1.37 | 0.998
AUUUACCUAGGUAAUCGGGUG [Fam2.2 aminoacylation ribozyme variant] | 3.42 | 1.78 | 2.75 | 1.85 | 17.3 | 2.92
AAGAUUGCUAAUAUUCGCAAG [Fam3.1 aminoacylation ribozyme variant] | 1.58 | 1.5 | 1.42 | 2.02 | 1.44 | 2.51
CCACACUUCAAGCGAUCGGUC [Fam1B.1 aminoacylation ribozyme variant] | 0.815 | 1.02 | 0.743 | 0.887 | 1.72 | 1.51

Sequence | self-aminoacylation (biotinyl-Leu-oxazolone) | self-aminoacylation (biotinyl-Val-oxazolone) | self-aminoacylation (biotinyl-Met-oxazolone) | self-aminoacylation (biotinyl-Ile-oxazolone) | self-aminoacylation (biotinyl-Phe-oxazolone) | self-aminoacylation (biotinyl-Trp-oxazolone)
AUUACCCUGGUCAUCGAUUGC [Fam2.1 aminoacylation ribozyme variant] | 0.84 | 0.926 | 0.757 | 1.15 | 0.81 | 0.663
CUACUUCAAACAAUCAGUCUC [Fam1A.1 aminoacylation ribozyme variant] | 0.872 | 0.904 | 0.723 | 0.833 | 25.9 | 8
CUAAUUAAAACAAUCGGUCUG [Fam1A.1 aminoacylation ribozyme variant] | 0.782 | 0.738 | 0.827 | 0.791 | 0.555 | 0.564
CAGUUUGCUGAUAGUCGCAAG [Fam3.1 aminoacylation ribozyme variant] | 1.17 | 1.27 | 1.11 | 1.34 | 1.88 | 1.99
AAGUUUGCUAAGAGUUGCAAG [Fam3.1 aminoacylation ribozyme variant] | 0.86 | 0.757 | 0.665 | 0.797 | 0.74 | 0.97
AUUACCUUGGUCAUCGUGUGA [Fam2.1 aminoacylation ribozyme variant] | 2.71 | 1.57 | 2.55 | 1.53 | 16.2 | 3.57
CUAGUUCAAACAAUCGGUCCG [Fam1A.1 aminoacylation ribozyme variant] | 0.745 | 0.649 | 0.742 | 0.787 | 0.893 | 0.582
AAGUUGGCUAAUAGUGGCAAG [Fam3.1 aminoacylation ribozyme variant] | 0.655 | 0.731 | 0.931 | 0.654 | 0.667 | 1.13
CUACUUAAAACAAUCGUUCUG [Fam1A.1 aminoacylation ribozyme variant] | 0.432 | 0.57 | 0.592 | 0.568 | 0.579 | 0.503
ACUCACCUAAGUCAUCGGGUG [Fam2.2 aminoacylation ribozyme variant] | 10.5 | 5.83 | 9.14 | 5.02 | 67.2 | 10.6
AUUAACCUAUGUCAUCGGGUG [Fam2.2 aminoacylation ribozyme variant] | 6.82 | 3.13 | 5.3 | 3.43 | 36 | 5.05
CUACUACAAACAAUCUGUCUG [Fam1A.1 aminoacylation ribozyme variant] | 0.647 | 0.835 | 0.624 | 0.787 | 0.733 | 0.45
AAGUUUGCUAAAAGUCGCUAG [Fam3.1 aminoacylation ribozyme variant] | 0.944 | 0.803 | 0.781 | 0.911 | 1.38 | 0.783
CCCCACUUCAAGCAAUCGUUC [Fam1B.1 aminoacylation ribozyme variant] | 0.697 | 0.849 | 0.697 | 0.898 | 1.77 | 1.12
AAGUAUGCUAAUAGUUGCAAG [Fam3.1 aminoacylation ribozyme variant] | 1.11 | 1.38 | 1.71 | 1.44 | 2.31 | 1.73
UUUACCCUGAUCAUCGAGUGA [Fam2.1 aminoacylation ribozyme variant] | 7.11 | 4.05 | 8.08 | 3.92 | 23.3 | 9.79
AUUCCCCUAGGUCUUCGGGUG [Fam2.2 aminoacylation ribozyme variant] | 26.7 | 13.9 | 19.3 | 13.7 | 127 | 21.8
AUUCACCUACGUCAUCGGGAG [Fam2.2 aminoacylation ribozyme variant] | 1.07 | 0.861 | 1.23 | 0.803 | 0.516 | 0.502
GAGUUUGCUACUAGUCGCAAG [Fam3.1 aminoacylation ribozyme variant] | 1.66 | 1.47 | 1.04 | 1.31 | 1.59 | 1.99
AAGUUGGCUUAUAGUCGCAAG [Fam3.1 aminoacylation ribozyme variant] | 1.64 | 1.61 | 1.94 | 1.59 | 2.35 | 1.7
AAGUUUGUUAAUAGUCGCAAA [Fam3.1 aminoacylation ribozyme variant] | 1.68 | 1.32 | 1.63 | 1.8 | 2.15 | 1.43
AUUAUCCUAGUCAUCGAGUGA [Fam2.1 aminoacylation ribozyme variant] | 6.53 | 3.15 | 5.97 | 3.35 | 26.4 | 8.1
AUUCACCUAGGUCUUCGGUUG [Fam2.2 aminoacylation ribozyme variant] | 1.75 | 1.41 | 1.76 | 1.55 | 9.48 | 1.72
AUUUCCCUGGUCAUCGAGUAA [Fam2.1 aminoacylation ribozyme variant] | 2.52 | 1.83 | 2.39 | 1.56 | 3.9 | 2.37
CUACUGUAAACAAUCGGUCUG [Fam1A.1 aminoacylation ribozyme variant] | 0.863 | 0.741 | 0.887 | 0.897 | 0.659 | 0.53
